Reference: the DeepSol protein solubility set

Assay: soluble on expression in E. coli; label from the status in PepcDB or PDB records
For “MKETVTMLNQQYVVPEGLQPYQGVTANSPWLASETEKRRRKICDSLEEAIRRSGLKNGMTISFHHAFRGGDKVVNMVMAKLAEMGFRDLTLASSSLIDAHWPLIEHIKNGVVRQIYTSGLRGKLGEEISAGLMENPVQIHSHGGRVKLIQSGELNIDVAFLGVPCCDEFGNANGFSGKSRCGSLGYAQVDAQYAKCVVLLTEEWVEFPNYPASIAQDQVDLIVQVDEVGDPEKITAGAIRLSSNPRELLIARQAANVIEHSGYFCDGFSLQTGTGGASLAVTRFLEDKMRRHNITASFGLGGITGTMVDLHEKGLIKALLDTQSFDGDAARSLAQNPHHIEISTNQYANPASKGAACERLNVVMLSALEIDVNFNVNVMTGSNGVLRGASGGHSDTAAGADLTIITAPLVRGRIPCVVEKVLTTVTPGASVDVLVTDHGIAVNPARQDLLDNLRAAGVALMTIEQLQQRAEQLTGKPQPIEFTDRVVAVVRYRDGSVIDVIRQVKG”, the “soluble on expression in E. coli” value was “soluble”. In the case of “MGHHHHHHSHMDVVDPDIFNRDPRDHYDLLQRLGGGTYGEVFKARDKVSGDLVALKMVKMEPDDDVSTLQKEILILKTCRHANIVAYHGSYLWLQKLWICMEFCGAGSLQDIYQVTGSLSELQISYVCREVLQGLAYLHSQKKIHRDIKGANILINDAGEVRLADFGISAQIGATLARRLSFIGTPYWMAPEVAAVALKGGYNELCDIWSLGITAIELAELQPPLFDVHPLRVLFLMTKSGYQPPRLKEKGKWSAAFHNFIKVTLTKSPKKRPSATKMLSHQLVSQPGLNRGLILDLLDKLKNPGKGPSIGDIEDEEPELPPAIPRRIRSTHRSSSLGIPDADCCRRHMEFRKLRGMETRPPANTARLQPPRDLRSSSPRKQLSES”, the “soluble on expression in E. coli” value was “soluble”. With “MKPKPSQFKNLERMLGLKTEQLDAVKVTIELKDKILIIENPTVIKMIAQGQEIYSVIGEAKEAQKEEPKVEIKDEDVKFVMEQTGKGEQEVKEALQKANGDIAKAILLLTGQET” the “soluble on expression in E. coli” value was “soluble”. In the case of “GSHMQTHAARMRTFMYWPSSVPVQPEQLASAGFYYVGRNDDVKCFCCDGGLRCWESGDDPWVEHAKWFPRCEFLIRMKGQEFVDEIQGRYPHLLEQLLSTS”, the “soluble on expression in E. coli” value was “soluble”. With “MGSDKIHHHHHHMRLVQYRMPDGSRRVGRVSDDDNHLHPLDKTGSVLELAEAAIAEDMSIASLVEKRTAAATIDYDALLRNGRVLAPVDHPEPARFLVTGTGLTHTGSAAARNQMHVLTHGDGAEESDSLKIFRMGLEGGKPGAGKIGIQPEWFFKGVGTCVVPPGAPLPMPAFAKAGAEEAEIVGLYLNGPDGHPYRIGYALGNEYSDHVTEGENYLYLAHSKLRSCSIGPELLIGDLPEEVRGHSRILRDGTVIWEQEFLSGEAHMSHSIANLEHFHFRYPMHRRAGDLHAYFFGAAVMSYASGIKTASGDEYEIQAQAFGKPLRNRMVSVPDEGLVTVTPL” the “soluble on expression in E. coli” value was “not soluble”. In the case of “GMNRLRTSFQQTTGQISGHGKRNVGVLKTAFAAVADEMASDQYGTGAIIEPFEQKFADVLGMDDAVFFPSGTMAQQVALRIWSDETDNRTVAYHPLCHLEIHEQDGLKELHPIETILVGAADRLMTLDEIKALPDIACLLLELPQREIGGVAPAFSELETISRYCRERGIRLHLDGARLFEMLPYYEKTAAEIAGLFDSIYISFYKGLGGIAGAILAGPAAFCQTARIWKRRYGGDLISLYPYIVSADYYYELRKDRMGQYYEQAKQLAEQFNALPGVHTTPEVPVSNMFHLHFDGQAADISPKLEQVQEETGLGFVGYLVDKDGYCSTEISVGDAYGELDQQTRDAGFARLRQAFS”, the “soluble on expression in E. coli” value was “soluble”. In the case of “MAPLGASPRLVLLFSGKRKSGKDFVTERLKSRLGGNICALLRLSGPLKEEYAREHGLDFQRLLDASTYKETYRRDMICWGEQKRQADPGFFCRKIVEGVSQPIWLVSDTRRTSDIQWFQEAYGAVIQTVRVVASEQSRQQRGWVFTLGVDDAESECGLDNFGNFDWVIENHGDEQCLEDQLEHLLGFIQAKL”, the “soluble on expression in E. coli” value was “soluble”. In the case of “MAQTLAQTKQISQSHTFDVSQSHHKTPDDTNSHSVIYSTQNLDLWYGENHALQNINLDIYENQITAIIGPSGCGKSTYIKTLNRMVELVPSVKTAGKILYRDQDIFDQKYSKEQLRTNVGMVFQQPNPFPKSIYDNITYGPKIHGIKNKKVLDEIVEKSLRGAAIWDELKDRLHTNAYSLSGGQQQRVCIARCLAIEPEVILMDEPTSALDPISTLRVEELVQELKEKYTIIMVTHNMQQAARVSDKTAFFLNGYVNEYDDTDKIFSNPSNKKTEDYISGRFG”, the “soluble on expression in E. coli” value was “not soluble”. With “MITQRQNAILNLIVEMFTRTHEPVCSKALQDSIDSSSATIRNDMAKLEKMGYLEKAHISSGRMPSRAGFQYFVANSLNLDTIDEQDVYQVVKAFDFEAFKLEDILDAAAKLLAEMTGCTAVIQDVEPTKQRLTGFEIVQLSNHDALAVLTLDESKPVTVQFAIPKNFLSSDLEIFHKLVQGRFLGNTVLDIHYRLRTETPQIVQKYFKITDNVLDLFDYIFSHLFKELIFIEGKVASLAYADLKTYQFLDNPQHVALALRSAISDDEVTKISVAESTEEALENVTVMSHKFLIPYRGTALMHVIGPIEMDYRRMVSLVNVISRVLVMKLTDYYRYLNSNHYEVFLSRNVLKNIERGECLD” the “soluble on expression in E. coli” value was “not soluble”. In the case of “MSGNGVKKVAEVAAKAGKAIDWEGMAKMLVSDEARKEFNTLRRTFEDVNHQLQTKFSQEPQPIDWEYYRKGIGSKVVDMYKEAYERTSCFVNPNVNAFCGTVICSEMHVLLCDLVNRSEDTKHEINAGIEIPKYVDTVTPQYKPKFDALLVELKEAEKESLKESERIEKELAELQEMKKNISTMTADEYFAKHPEVKQKFDDEIRNDNWGY”, the “soluble on expression in E. coli” value was “soluble”. With “MNQYQKTTERKKQAIIQAALHLFKEKGFKGTSIKSIAKAAQVSPVSIYNYFESKESLVDLCVNKLFEEITQEAENILTSEIDFKMKLCQALALCQKKMSHQISVYFKEKTIKDPTFSKLLTKAIVAKKREIYRSYIKLGKDEGVIAKDLSTELILNVMDALNSIGNQLSESENLGEEIEQIHRLFLYGIFGKI” the “soluble on expression in E. coli” value was “not soluble”. For “QHPAFMTEMPTDGKYQDTIEALQSMKYDKEDDEDKQMNAEHHKEEGNKHFKFKKYRWATDCYSNGIKENSPDRKLNAVLYFNRAAAQKHLGNLRSAIKDCSMGRKFDPTHLKGVIRGAECLLELEYAKDALNWIESSKKIFAFTKETSDTPDLTDDEKKFIDQLETLRVKSVELSLKEERDKRKSRAEERKETESKKQLLDALKERNLNLCPRVPFDRPELMDMARLTVSLPLMHSHECVKFDDDLNLVWPILLQYPEAGQTDVLTETNELTTVGELLKEVLNSPAQWDPEHKFNFENVRFFVSDEYDEYLMEVYEWNDFKSVLSMPGYQIKQGLPVIMIMTKEKAASSLEALAEDENRYVAK”, the “soluble on expression in E. coli” value was “not soluble”. With “SSGSTVDSTTLCLFDVDGTLTAARQKATADMHEFLSKLKQRVKVGVVGGSDLDKIKEQLGDDVIDRVDYVFAENGLVAYRFGKLHSVQNIQAYLGEDILQEFINFCLNYLSKIKLPKKRGTFIEFRNGMLNVSPIGRSCSQQERIEFFELDKKEKIRETFVSVLKEEFAGKGLAFSIGGQISFDVFPEGWDKRYCLGIVEKDSYQHIHFFGDKTMPGGNDYEIFVDPRTIGHEVKSPEDTQRICRELFFS” the “soluble on expression in E. coli” value was “soluble”. In the case of “MSLKSHKLLYQLKNKLTWLPILILAACQNNIIYHSYAPVPLDGWDKSDTLVYTLPNSIPAGNYEAEIGIRYQESYPYRDIWLEVSHNTKDTLTYVTDTLQLFLVDEAGNKTGNGLCGLYQCDLPYKASIPIRTEGSARTFRIVHIMTDNPLTGISDIGIRLRKPENEGHHHHHH”, the “soluble on expression in E. coli” value was “not soluble”. In the case of “GSERVNYKPGMRVLTKMSGFPWWPSMVVTESKMTSVARKSKPKRAGTFYPVIFFPNKEYLWTGSDSLTPLTSEAISQFLEKPKPKTASLIKAYKMAQSTPDLDSLSVPS”, the “soluble on expression in E. coli” value was “soluble”. For “GQSLPSVSKEIRELSNRTEQQTSLSDRKESEAFALETVRMISDRTLYLFRLAEGRSWEADVRGRSWASRVLPIVHRLKHGGIPWKQYLSSDSLCMEARLYGKYDSVTGAYRRGVVSFRSDIPQRNKVDDLTALALLGENVYAEEFDFGNRQIFPNPIRREAEAFYTYRLDSLYEKDGITYRRIAFRGLSGLNHGTVTIDATHGQLAILEMRVMMKGVITESYRVELGEVEPGLFLPIGLSVVIDRNRLWASLHNGYSASISYPGEQLDKTVLPVYTPTDSSRYRLPDELPVAPVWAVRSSFGREDSSTYWKNVVVGRDHTLHQHVPWHRALAWGHKYRIGERWRLGNEGLVWALFYYNYADHLWLGQSLTAIYDMAPGIRWEIKPGLYYVTKRRKAVWTLDSKLYYSPPQRGLLQLSAGHRSFDLYSTRERIDQLTDLMMELLNGQGPTTRYDDKFVRLTNSIDLLPKLNVETSVMLAERNPLPHGET”, the “soluble on expression in E. coli” value was “not soluble”.
